Source: publication PMC6449081

How the values were obtained:
[1] = target: phage P22 coat protein E81R:E323R, in P22 phage particles (phage P22) (UniProt P26747); assay: co-sedimentation; purified Dec added to purified P22 phages with WT or variant coat protein; free Dec separated by cesium chloride density gradient sedimentation; phage bands TCA-precipitated, SDS-PAGE, Coomassie bands of coat and Dec quantitated and normalized to the ratio in native P22 particles bound with Dec
[2] = target: Dec Y31A with a C-terminal histidine tag (phage L); assay: native gel or EMSA; native gel of purified Dec variants in solution
[3] = target: Dec Y49E with a C-terminal histidine tag (phage L); assay: as above
[4] = target: Dec K30D with a C-terminal histidine tag (phage L); assay: as above
[5] = target: phage L decoration protein Dec, capsid-bound trimer in native phage L virions (phage L); assay: cryo-EM structure; native phage L virions, vitrified; icosahedral reconstruction, 4.2 Å; NMR OB-fold of Dec and a coat homology model fitted into the map
[6] = target: Dec Y71A with a C-terminal histidine tag (phage L); assay: native gel or EMSA; native gel of purified Dec variants in solution
[7] = target: Dec E73R with a C-terminal histidine tag (phage L); assay: as above

recombinant wild type Dec with a C-terminal histidine tag (natural protein)
Dec binding, normalized to WT (%) [1]: < 20%

Dec Y31A with a C-terminal histidine tag (natural protein)
stoichiometry N [2]: 3

Dec Y49E with a C-terminal histidine tag (natural protein)
stoichiometry N [3]: 3

Dec K30D with a C-terminal histidine tag (natural protein)
stoichiometry N [4]: 3

phage L decoration protein Dec, capsid-bound trimer in native phage L virions (natural protein)
stoichiometry N [5]: 3

Dec Y71A with a C-terminal histidine tag (natural protein)
stoichiometry N [6]: 3

Dec E73R with a C-terminal histidine tag (natural protein)
stoichiometry N [7]: 3
